For test [1], the system named is seq129.1_CID-SmBiT and mini11-LgBiT. The experiment in a line: Cortisol sensing with NanoBiT fusions (luminescence on cortisol titration). The settings on record: seq129.1_CID-SmBiT and mini11-LgBiT mixed equimolar, cortisol 2-3 hours, DTZ 25 μM; estimated; read-out: EC50 of luminescent signal on cortisol titration. The class given is biochemical. The source says:
FIG. 2. Design and characterization of a cortisol-dependent heterodimer. (A) Design pipeline for cortisol-induced heterodimerization. Starting from a model of seq129.1_CID in complex with cortisol (top), we used RIFdock™ and a library of designed 3-helix bundles to generate thousands of putative ternary complexes (middle), and amino acid sequences encoding these complexes were generated with FastDesign™ and ProteinMPNN™ (bottom). Zoom-in of the designed CID ternary complex (seq129.1_CID, mini11, and cortisol) (bottom panel). (B) Size-exclusion chromatography traces of an equimolar solution of seq129.1 and mini11 (1 μM) in the presence or absence of cortisol (10 μM). (C) Schematic diagram of the designed cortisol-induced heterodimerization coupled with a binary split luciferase to create a biosensor. […]
As a proof-of-concept for the application of the designed CID as a sensor for cortisol, we genetically fused seq129.1_CID and mini11 to the SmBiT and LgBiT components of the NanoBiT™ system, respectively, which reconstitutes NanoBiT™ and generates luminescence when brought in close proximity by a molecular interaction 18.
seq129.1_CID and mini11 were genetically fused to SmBiT and LgBiT, respectively, and ordered as eblocks from IDT. […] Immediately after adding DTZ, the luminescent signal was measured on a Neo2 plate reader. […]

Test [2] has as its system seq129.1_CID. The experiment in a line: Native mass spectrometry of the ternary complex. In kind it is binding. The settings on record: cortisol and mini11.
Test [3] addresses T1, seq129.1_CID-SmBiT.
T1 chain: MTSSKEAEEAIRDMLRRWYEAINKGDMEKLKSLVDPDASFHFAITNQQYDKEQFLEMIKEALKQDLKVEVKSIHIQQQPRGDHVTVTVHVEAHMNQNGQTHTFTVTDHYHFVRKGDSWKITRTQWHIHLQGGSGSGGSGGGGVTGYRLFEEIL
The experiment in a line: cell-based or functional assay.

As to `C[C@]12CCC(=O)C=C1CC[C@@H]1[C@@H]2[C@@H](O)C[C@@]2(C)[C@H]1CC[C@]2(O)C(=O)CO` [cortisol], the EC50 in test [1] was 25 nM.

B1: mini11: designed 3-helix bundle minibinder that binds seq129.1_CID only with cortisol (protein)
chain: MSSASTLVKTFSLCMEALSIEDPEKREEVYEKARKLAEENNDPAALFLVESIKKQHEQSSSLE
Regarding B1, the “ternary complex by native mass spectrometry” value in test [2] was “revealed a molecular weight for the seq129.1_CID-cortisol-mini11 ternary complex”.

B2: mini11-LgBiT (designed binder)
chain: MSSASTLVKTFSLCMEALSIEDPEKREEVYEKARKLAEENNDPAALFLVESIKKQHEQSGGSGGMVFTLEDFVGDWEQTAAYNLDQVLEQGGVSSLLQNLAVSVTPIQRIVRSGENALKIDIHVIIPYEGLSADQMAQIEEVFKVVYPVDDHHFKVILPYGTLVIDGVTPNMLNYFGRPYEGIAVFDGKKITVTGTLWNGNKIIDERLITPDGSMLFRVTINS
B2: in test [3], the “luminescent signal of reconstituted NanoBiT on titration with cortisol (the EC50 is a cortisol concentration)” value turned out to be 25 nM.

The values are drawn from US20250154213A1, “De Novo Designed Cortisol Biosensor” (University of Washington, priority 2023, published 2025).
